Measured values taken from the supplement of paper PMC7125110.
± gives the standard error. For part of these data: Fewer inactive variants are shown than the library holds.

B1: glmS ribozyme (parent)
chain: AUAAAAGCGCCAGAACUACAGAAAUGUAGUUGACGAGGAGGAGGUUUAUCGAAUUUUCGGCGGAUGCCUCCAAA

How the values were obtained:
Conditions in all cases: with glucosamine-6-phosphate
[1] = variants of: B1; assay: kcat; higher = faster cleavage; RNA array
Outline: (§1)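 Glucosamine-6-phosphate in HEPES/KCl/Mg(OAc)2 buffer, at 40 μM to 10 mM, was flowed over barcoded ribozyme variants transcribed in situ by E. coli RNA polymerase on sequenced MiSeq chips. Tracking was through a hybridised Cy3 probe at 37 °C. kobs, kcat and KM came from exponential decay fits and weighted Michaelis–Menten fits of normalised per-tile medians.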

[2] = variants of: B1; assay: KM; higher = weaker cofactor use; RNA array
Outline: as §1

[3] = variants of: B1; assay: self-cleavage kobs at 160 uM GlcN6P; higher = faster cleavage; RNA array
Outline: as §1

[4] = variants of: B1; assay: self-cleavage kobs at 40 uM GlcN6P; higher = faster cleavage; RNA array
Outline: as §1

[5] = variants of: B1; assay: self-cleavage kobs at 640 uM GlcN6P; higher = faster cleavage; RNA array
Outline: as §1

[6] = variants of: B1; assay: self-cleavage kobs at 2500 uM GlcN6P; higher = faster cleavage; RNA array
Outline: as §1

[7] = variants of: B1; assay: self-cleavage kobs at 10000 uM GlcN6P; higher = faster cleavage; RNA array
Outline: as §1

| Variant | kcat [1] [s⁻¹] | KM [2] [µM] | self-cleavage kobs at 160 uM GlcN6P [3] [s⁻¹] | self-cleavage kobs at 40 uM GlcN6P [4] [s⁻¹] | self-cleavage kobs at 640 uM GlcN6P [5] [s⁻¹] | self-cleavage kobs at 2500 uM GlcN6P [6] [s⁻¹] | self-cleavage kobs at 10000 uM GlcN6P [7] [s⁻¹] |
| --- | --- | --- | --- | --- | --- | --- | --- |
| A39C G44C | 1.03e-05 ± 1.3e-06 | 3630 ± 1200 | < 1e-05 | – | – | – | – |
| A39C A53C | 0.00121 ± 6.7e-05 | 2680 ± 240 | 7.25e-05 ± 1.1e-05 | 2.09e-05 ± 8.9e-06 | 0.000221 ± 2.6e-05 | 0.000595 ± 6.8e-05 | 0.000957 ± 0.0001 |
| A39C A53U | 0.00502 ± 0.0011 | 2730 ± 760 | 0.000227 ± 3.4e-05 | 7.74e-05 ± 7.6e-06 | 0.000952 ± 0.00013 | 0.00344 ± 0.00044 | 0.00367 ± 0.00039 |
| G37U U69G | 4.56e-05 ± 1.6e-05 | – | 3.74e-05 ± 8.6e-06 | – | 6.88e-05 ± 1.5e-05 | – | – |
| G38A U69G | 3.24e-05 ± 5.7e-06 | – | – | – | – | 3.53e-05 ± 1.3e-05 | – |
| A39G C67U | 0.00597 ± 0.0013 | 979 ± 370 | 0.000762 ± 0.00016 | 0.00033 ± 5.8e-05 | 0.00216 ± 0.00033 | 0.00338 ± 0.0007 | 0.00666 ± 0.00089 |
| A39G C67A | 0.00703 ± 0.003 | – | – | 0.000425 ± 7.2e-05 | 0.00288 ± 0.00088 | – | 0.00689 ± 0.0015 |
| G37U C70A | 1.53e-05 ± 2e-06 | – | – | – | – | – | – |
| A39C C71U | 0.00106 ± 0.00018 | 1570 ± 470 | 9.02e-05 ± 1.2e-05 | 4.78e-05 ± 7.5e-06 | 0.000275 ± 3.1e-05 | 0.000738 ± 8.5e-05 | 0.000904 ± 7.4e-05 |
| G37C C50U | < 1e-05 | – | – | – | – | – | < 1e-05 |
| G37A U45G C70G | 1.07e-05 ± 4e-06 | – | – | – | – | – | – |
| A36C U46C | < 1e-05 | – | – | < 1e-05 | < 1e-05 | – | < 1e-05 |
| A36U U47G G51U | < 1e-05 | – | – | – | – | – | < 1e-05 |
| A36G U69A | 1.02e-05 ± 2.2e-06 | – | – | – | – | – | – |
| G37A C71G | 0.000188 ± 2.3e-05 | 2370 ± 690 | 3.34e-05 ± 1.4e-05 | – | 4.08e-05 ± 7.8e-06 | 9.24e-05 ± 9.5e-06 | 0.000155 ± 1.4e-05 |
| G37A G40U | 0.000159 ± 2e-05 | 2050 ± 490 | – | – | 3.99e-05 ± 7.5e-06 | 8.45e-05 ± 9.3e-06 | 0.000151 ± 4.4e-05 |
| G37A G40C | 0.000207 ± 4.1e-05 | 2180 ± 880 | – | – | 4.22e-05 ± 1.3e-05 | 0.00015 ± 3.5e-05 | 0.000157 ± 3.4e-05 |
| A39U G43A | 0.000177 ± 1.5e-05 | 1170 ± 280 | – | – | 5.75e-05 ± 8.5e-06 | 0.000139 ± 1.6e-05 | 0.000152 ± 1.4e-05 |
